Columns and labels:
[1] = test system: FLAG-HA-tagged p300 catalytic core (aa 1035–1830 of p300); assay: Histone acetyltransferase (HAT) assay, Western blot, recombinant nucleosome substrate; assay type: biochemical; conditions: 1 μg p300 core, 2.5, 5 or 10 μg GST-tagged TADs, 1 μg nucleosome, 15 min
Protocol: Histone acetyltransferase assay
For HAT assays, FLAG-HA-tagged p300 core (aa 1035–1830 of p300) in a pCDH vector was expressed in 293 T cells for two days. Cells were lysed in lysis buffer (50 mM Tris-HCl pH 7.5, 300 mM NaCl, 1.5 mM MgCl2, 1 mM EDTA, 1% Triton100, 10% glycerol, 1 mM PMSF, and protease inhibitors) and sonicated. Cell lysates were incubated with anti-Flag M2 beads (Sigma) at 4° for 4 h. The beads were then washed three times with buffer (50 mM Tris-HCl pH 7.5, 500 mM NaCl, 1.5 mM MgCl2, 0.2 mM EDTA, 0.1% NP40, 10% glycerol, and 1 mM PMSF), and the protein was eluted with elution buffer (50 mM Tris-HCl pH 7.5, 300 mM NaCl, 1 mM DTT, 10% glycerol, and 0.4 mg/ml Flag peptide).
GST-tagged EZH2TADs (aa 119–267), EZH1TADs (aa 120–280), F176A/F237A EZH1TADs (EZH1 2A), and F146A/F176A/F237A/Y257A EZH1TADs (EZH1 4A) constructs in the pGEX-6p-1 vector were transformed into RosettaTM2 (DE3) pLysS competent cells (Novagen). Protein production was induced by incubating with 0.4 mM IPTG at 16°C for 20 h in LB. Cell pellets were resuspended in lysis buffer (50 mM Tris-HCl pH 8.0, 300 mM NaCl, 1 mM PMSF, and 1 × cOmpleteTM EDTA-free Protease Inhibitor Cocktail) and lysed by sonication. Lysates were centrifuged at 17,000 g for 15 min, and supernatants were incubated with Glutathione Sepharose® 4B beads (Sigma) at 4°C for 2 h. Beads were washed with lysis buffer twice, and proteins were eluted with elution buffer (50 mM Tris-HCl pH 8.0, 150 mM NaCl, 10% glycerol, and 15 mg/ml GSH).
Purified FLAG-HA-tagged p300 catalytic core fragment (1 μg) was incubated with increasing amounts of GST-tagged EZH2TADs and GST-tagged EZH1TADs (2.5, 5, or 10 μg) and the nucleosome (1 μg) in HAT reaction buffer (50 mM Tris-HCl pH 8.0, 100 mM NaCl, 10% glycerol, 1 mM DTT, […], and 1× cOmplete EDTA-free Protease Inhibitor Cocktail) at 30°C for 15 min. Reactions were stopped by boiling at 95°C for 5 min in 2×SDS loading buffer, and samples were analyzed by SDS-PAGE and Western blot. […]

[2] = test system: GST-p300TAZ2; assay: Mass photometry (MP) of GST-p300TAZ2 with EZH2TAD constructs; assay type: binding, human; conditions: 20 nM GST-p300TAZ2 alone
Protocol: [37]. […] After induction with isopropyl b-D-1-thiogalactopyranoside (IPTG), harvesting, and lysis in buffer [50 mM Tris pH 7.0, 1 M NaCl, 5 mM dithiothreitol (DTT), 1 mM phenylmethanesulfonylfluoride (PMSF) and DNase] by sonication, the proteins were purified on glutathione agarose beads (Pierce) and eluted with buffer containing reduced L-glutathione (Fisher). The GST tag was either cleaved with TEV protease overnight at 22°C or kept intact during subsequent purification steps. […] The EZH2TAD1 ([…]) construct was generated by deletion using Q5 Hot Start High-Fidelity kit (NEB) and confirmed by DNA sequencing. Both constructs were expressed in E. coli Rosetta-2 (DE3) pLysS cells grown in LB media and induced at an OD600 of 0.6-0.8 with 1 mM IPTG for 16 h at 16°C. Cells were harvested by centrifugation, suspended in buffer (50 mM Tris pH 7.5, 500 mM NaCl, 1% CHAPS, 2 mM DTT, 1 mM PMSF, Roche cOmplete Protease Inhibitor Cocktail, and DNase), and lysed by sonication. […] When necessary, EZH2TAD constructs were further purified using a Superdex 200 Increase 10/300 GL column (Cytiva) with monitoring at 205 and 280 nm. […] To overcome the minimum size limit, a GST-fusion construct was used for one of the components in each sample. […] Ten microliter of each sample was loaded into the sample wells of the silicon cassettes assembled onto MassGlass UC coverslips (Refeyn, Ltd.). […]

B1: EZH1 WT: GST-tagged EZH1TAD1-TAD2-TAD3 (aa 120–280) (protein)
chain: NFMVEDETVLCNIPYMGDEVKEEDETFIEELINNYDGKVHGEEEMIPGSVLISDAVFLELVDALNQYSDEEEEGHNDTSDGKQDDSKEDLPVTRKRKRHAIEGNKKSSKKQFPNDMIFSAIASMFPENGVPDDMKERYRELTEMSDPNALPPQCTPNIDGP
modifications: left off: GST, end not stated, kept
H3K18 acetylation by p300 core ([1]; 100 mM acetyl-CoA, 50 mM Tris-HCl pH 8.0, 30°C, H3K18ac Western blot): dose-dependent increase in H3K18 and H3K27 acetylation
H3K27 acetylation by p300 core ([1]; 100 mM acetyl-CoA, 50 mM Tris-HCl pH 8.0, 30°C, H3K27ac Western blot): dose-dependent increase in H3K18 and H3K27 acetylation

B2: EZH1 2A: GST-tagged F176A/F237A mutant of EZH1TAD1-TAD2-TAD3 (aa 120–280) (protein)
chain: NFMVEDETVLCNIPYMGDEVKEEDETFIEELINNYDGKVHGEEEMIPGSVLISDAVALELVDALNQYSDEEEEGHNDTSDGKQDDSKEDLPVTRKRKRHAIEGNKKSSKKQFPNDMIASAIASMFPENGVPDDMKERYRELTEMSDPNALPPQCTPNIDGP
modifications: left off: GST, end not stated, kept
stimulation of p300 enzymatic activity ([1]; mutants compared with EZH1 WT, 30°C, H3K18ac and H3K27ac Western blot): stimulation of the p300 enzymatic activity was decreased

B3: GST-p300TAZ2: GST-tagged human p300 TAZ2 domain, aa 1722–1812 (protein)
chain: AWTQSPGDSRRLSIQRCIQSLVHACQCRNANCSLPSCQKMKRVVQHTKGCKRKTNGGCPICKQLIALCCYHAKHCQENKCPVPFCLNIKQK
modifications: left off: GST, end not stated, kept
oligomeric state in the apo-state [2]: exists in a dimeric form
MP peak, apo GST-p300TAZ2 ([2]; Figure 5a, room temperature, 50 mM Tris pH 7.5, 150 mM NaCl, 5 mM DTT): ~ 80 kDa
